Data taken from the supplement of paper PMC7877785.
± gives the uncertainty stated by the source.

Assay: self-splicing fitness, log relative to wild type (ln ratio); higher = more splicing; Tetrahymena group I intron in knt gene, E. coli kanamycin selection, DiMSum; sequences stand for … in CUCUCU…GGAGGGAAAAGUUAUCAGGCAUGCACCUGGUAGCUAGUCUUUAAACCAAUAGAUUGCAUCGGUUUAAAAGGCAAGACCGUCAAAUUGCGGGAAAGGGGUCAACAGCCGUUCAGUACCAAGUCUCAGGGGAAACUUUGAGAUGGCCUUGCAAAGGGUAUGGUAAUAAGCUGACGGACAUGGUCCUAACCACGCAGCCAAGUCCUAAGUCAACAGAUCUUCUGUUGAUAUGGAUGCAGUUCACAGACUAAAUGUCGGUCGGGGAAGAUGUAUUCUUCUCAUAAGAUAUAGUCGGACCUCUCCUUAAUGGGAGCUAGCGGAUGAAGUGAUGCAACACUGGAGCCGCUGGGAACUAAUUUGUAUGCGAAAGUAUAUUGAUUAGUUUUGGAGUACUCGUGGUCG
Procedure, shortened: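 Colonies from six replicate transformations of E. coli BL21(DE3) were pooled and amplicon-sequenced on an Illumina HiSeq 2500. The library placed an intron with all eight P1ex-region nucleotides randomised inside the knt kanamycin-resistance gene on pET-22b(+), and cells grew overnight at 37°C or 30°C on LB agar with or without 25 μg/mL kanamycin (plus 100 μg/mL carbenicillin, 50 μM IPTG, 0.2% rhamnose). Fitness is the DiMSum error-weighted combination of wild-type-normalised replicate fold changes, kanamycin versus none.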

## AUUCAGCAAUAUUACGACUU
30 °C
  self-splicing fitness (ln): -0.122 ± 0.1
37 °C
  self-splicing fitness (ln): 0.27 ± 0.11

## AAACAGCAAUAUUACGAUAC
30 °C
  self-splicing fitness (ln): -2.44 ± 0.11
37 °C
  self-splicing fitness (ln): -1.37 ± 0.14

## AGACAGCAAUAUUACGUGGU
30 °C
  self-splicing fitness (ln): -3.66 ± 0.14
37 °C
  self-splicing fitness (ln): -2.13 ± 0.12

## GACCAGCAAUAUUACGUCCA
30 °C
  self-splicing fitness (ln): -1.75 ± 0.095
37 °C
  self-splicing fitness (ln): -0.749 ± 0.095

## UCGCAGCAAUAUUACGAUUA
30 °C
  self-splicing fitness (ln): -1.06 ± 0.11
37 °C
  self-splicing fitness (ln): -0.805 ± 0.11

## GGGAAGCAAUAUUACGCGAG
30 °C
  self-splicing fitness (ln): -1.06 ± 0.33
37 °C
  self-splicing fitness (ln): -1.27 ± 0.47

## ACGAAGCAAUAUUACGCUUU
30 °C
  self-splicing fitness (ln): -3.88 ± 0.22
37 °C
  self-splicing fitness (ln): -2.63 ± 0.22

## AUAGAGCAAUAUUACGGUUA
30 °C
  self-splicing fitness (ln): -1.49 ± 0.083
37 °C
  self-splicing fitness (ln): -1.05 ± 0.11

## GUUUAGCAAUAUUACGACAU
30 °C
  self-splicing fitness (ln): -0.224 ± 0.014
37 °C
  self-splicing fitness (ln): 0.063 ± 0.033

## UAUUAGCAAUAUUACGUCAU
30 °C
  self-splicing fitness (ln): -3.69 ± 0.31
37 °C
  self-splicing fitness (ln): -2.81 ± 0.27

## CUUGAGCAAUAUUACGAAAU
30 °C
  self-splicing fitness (ln): -2.7 ± 0.2
37 °C
  self-splicing fitness (ln): -3.68 ± 0.46

## UUGAAGCAAUAUUACGUCUC
30 °C
  self-splicing fitness (ln): -3.24 ± 0.28
37 °C
  self-splicing fitness (ln): -1.28 ± 0.23

## AGACAGCAAUAUUACGUAUC
30 °C
  self-splicing fitness (ln): -3.63 ± 0.16
37 °C
  self-splicing fitness (ln): -1.52 ± 0.15

## UCAAAGCAAUAUUACGGCUC
37 °C
  self-splicing fitness (ln): -0.154 ± 0.2

## UAAGAGCAAUAUUACGCCGU
37 °C
  self-splicing fitness (ln): -2.26 ± 0.43

## GCCCAGCAAUAUUACGUGAA
30 °C
  self-splicing fitness (ln): -0.204 ± 0.053
37 °C
  self-splicing fitness (ln): 0.177 ± 0.077

## AAUAAGCAAUAUUACGUGCG
30 °C
  self-splicing fitness (ln): -1.1 ± 0.065
37 °C
  self-splicing fitness (ln): -0.488 ± 0.083

## AGCCAGCAAUAUUACGACGG
30 °C
  self-splicing fitness (ln): -4.18 ± 0.42
37 °C
  self-splicing fitness (ln): -1.35 ± 0.25

## GGGAAGCAAUAUUACGUCAA
30 °C
  self-splicing fitness (ln): -1.34 ± 0.32

## CGAAAGCAAUAUUACGUUUU
30 °C
  self-splicing fitness (ln): -4.51 ± 0.24
37 °C
  self-splicing fitness (ln): -2.31 ± 0.18

## CCGCAGCAAUAUUACGCUCG
30 °C
  self-splicing fitness (ln): -1.9 ± 0.07
37 °C
  self-splicing fitness (ln): -1.41 ± 0.094

## UACGAGCAAUAUUACGUGCG
30 °C
  self-splicing fitness (ln): -3.07 ± 0.15
37 °C
  self-splicing fitness (ln): -1.97 ± 0.18

## UGUCAGCAAUAUUACGACCG
30 °C
  self-splicing fitness (ln): -0.0146 ± 0.18
37 °C
  self-splicing fitness (ln): 0.122 ± 0.25

## GGAUAGCAAUAUUACGGAAC
30 °C
  self-splicing fitness (ln): -1.9 ± 0.22
37 °C
  self-splicing fitness (ln): -2.03 ± 0.29

## UGCUAGCAAUAUUACGCAUA
30 °C
  self-splicing fitness (ln): -2.58 ± 0.18
37 °C
  self-splicing fitness (ln): -1.37 ± 0.14

## CGUUAGCAAUAUUACGAGAG
30 °C
  self-splicing fitness (ln): -2.83 ± 0.25
37 °C
  self-splicing fitness (ln): 0.0196 ± 0.17

## UCGCAGCAAUAUUACGUCAU
30 °C
  self-splicing fitness (ln): -3.77 ± 0.14
37 °C
  self-splicing fitness (ln): -2.65 ± 0.13

## AAAGAGCAAUAUUACGCCAU
30 °C
  self-splicing fitness (ln): -3.65 ± 0.22
37 °C
  self-splicing fitness (ln): -2.55 ± 0.29

## CACGAGCAAUAUUACGUAUG
30 °C
  self-splicing fitness (ln): -3.54 ± 0.14
37 °C
  self-splicing fitness (ln): -2.79 ± 0.16

## GUUUAGCAAUAUUACGUAAU
30 °C
  self-splicing fitness (ln): -1.15 ± 0.1
37 °C
  self-splicing fitness (ln): 0.127 ± 0.13

## AUCUAGCAAUAUUACGGCGA
30 °C
  self-splicing fitness (ln): -0.505 ± 0.14
37 °C
  self-splicing fitness (ln): -0.448 ± 0.16

## AGAUAGCAAUAUUACGGCAG
30 °C
  self-splicing fitness (ln): -0.945 ± 0.12
37 °C
  self-splicing fitness (ln): -0.735 ± 0.14

## AGUUAGCAAUAUUACGGCGC
30 °C
  self-splicing fitness (ln): -0.53 ± 0.22
37 °C
  self-splicing fitness (ln): 0.14 ± 0.33

## AAACAGCAAUAUUACGGUCC
30 °C
  self-splicing fitness (ln): -2.09 ± 0.12
37 °C
  self-splicing fitness (ln): -0.775 ± 0.11

## AUUCAGCAAUAUUACGCAUG
30 °C
  self-splicing fitness (ln): -1.3 ± 0.082
37 °C
  self-splicing fitness (ln): -0.553 ± 0.11

## AUUAAGCAAUAUUACGCCGC
37 °C
  self-splicing fitness (ln): -2.04 ± 0.47

## UCCCAGCAAUAUUACGUGUG
30 °C
  self-splicing fitness (ln): -3.46 ± 0.094
37 °C
  self-splicing fitness (ln): -2.32 ± 0.093

## CAUAAGCAAUAUUACGAGUG
30 °C
  self-splicing fitness (ln): -2.76 ± 0.19
37 °C
  self-splicing fitness (ln): -2.86 ± 0.2

## GCACAGCAAUAUUACGAUGU
30 °C
  self-splicing fitness (ln): -2.05 ± 0.079
37 °C
  self-splicing fitness (ln): -0.389 ± 0.088
